# Target: NtRPT6-GFP (Nicotiana tabacum) (UniProt L7UU40)
substance,measurement,value
XopJ-myc (from UniProt A0AB38E6N7 1-316) (natural protein),"proteasome activity (breakdown of Suc-LLVY-AMC) in total extracts of N. benthamiana leaves transiently expressing XopJ-myc, against the empty vector control",40%
